The supplement of paper PMC10126150
± gives the standard deviation of the averaged measurements.

Tested on: ATP
Assay: switch fluorescence ratio, 500 uM ATP over buffer (Cy3 cluster intensity, sum of 5 cycles each) (fold (ratio)); higher = stronger signal-on switching upon ATP binding; sequences stand for … in TCGTCGGCAGCGTCAGATGTGTATAAGAGACAGTTTTTTTTTTTTTTTTTTTTTTTTT…TC
Settings: aptamer strand: ATP DNA aptamer (quencher-CACCTGGGGGAGTATTGCGGAGGAAGG + anchor), 100 nM annealed; ATP concentration: 500 uM
Procedure, shortened: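 Cy3-labelled switching-strand clusters on a modified Illumina MiSeq flow-cell were annealed to 100 nM quencher-labelled ATP aptamer and imaged first in selection buffer, then after 15 min with 500 uM ATP at 22 °C. NaOH stripping and re-annealing separated each of five buffer/ATP cycles, and clusters outside 100-1000 RFU were excluded. The fluorescence ratio sums target-cycle Cy3 intensity over buffer-cycle Cy3 intensity per cluster and averages it per switch-domain sequence.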
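Further: ATP exposure 15 min at 22 °C before imaging.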

| Sequence | switch fluorescence ratio |
| --- | --- |
| TTGGTATAGT | 0.9999 ± 0.0047 |
| CGTATGAAGA | 1.02 ± 0.016 |
| GAGGGGGATG | 0.979 ± 0.026 |
| TGGACAGGGT | 0.999 ± 0.017 |
| AGCGGGTTG | 1.02 ± 0.017 |
| TTATGTTGGG | 1.013 ± 0.0047 |
| TTTTTTGGAA | 1.1 ± 0.16 |
| AAATGTTCGT | 1.011 ± 0.0058 |
| TAGTTGATGT | 1.026 ± 0.008 |
| GAAGGGCCTG | 1.05 ± 0.056 |
| TGCCCATAGT | 1.009 ± 0.003 |
| TTGTATGTTT | 0.98 ± 0.023 |
| TGGGCTTTTT | 0.982 ± 0.041 |
| GAATATTACC | 1.06 ± 0.014 |
| AGGGTAGATT | 0.977 ± 0.054 |
| AATGAAAGGG | 0.988 ± 0.025 |
| CTAAATTTAG | 0.995 ± 0.023 |
| TGACGCGCGT | 1.014 ± 0.0018 |
| TTTTAATATT | 1.05 ± 0.11 |
| TACGGGGGAA | 1.26 ± 0.31 |
| TTATGCGATT | 1 ± 0.022 |
| CAAGTTTACC | 1.037 ± 0.0023 |
| ATAAGGGGTT | 0.993 ± 0.039 |

| Sequence | switch fluorescence ratio |
| --- | --- |
| GAGGTTCCCG | 0.984 ± 0.051 |
| GTGGGGGCAT | 1 ± 0.041 |
| ATACATTTGG | 0.999 ± 0.014 |
| CGTAGGCGTA | 0.98 ± 0.03 |
| AAGTGCTGTG | 0.996 ± 0.029 |
| GTGGGTTACT | 1.02 ± 0.021 |
| TTTCTTGTCA | 0.996 ± 0.059 |
| TGGGGGGATG | 0.996 ± 0.011 |
| ATTGTTTATT | 0.998 ± 0.012 |
| AAGTGTGGGT | 1 ± 0.075 |
| GCTAAAGGTC | 1.05 ± 0.044 |
| TTTTGATGGC | 1.01 ± 0.022 |
| TGCACCATTT | 1.02 ± 0.014 |
| GATTACTTCA | 1.065 ± 0.0071 |
| AAAACTCTGT | 1.04 ± 0.015 |
| CACGGACTGC | 1.42 ± 0.07 |
| TATAACGCGC | 1.11 ± 0.061 |
| CTTTTGGAGT | 0.986 ± 0.05 |
| AATAGGCACA | 1.07 ± 0.0015 |
| TCGAAGTTTT | 0.9996 ± 0.0089 |
| GGGTGAACTC | 0.988 ± 0.031 |
| TTGAATTGCT | 0.986 ± 0.032 |
| GGAATCAGGT | 1.014 ± 0.0065 |

| Sequence | switch fluorescence ratio |
| --- | --- |
| CAACGGGTGC | 1.75 ± 0.21 |
| CGCCTTGTTC | 1.01 ± 0.012 |
| TTTCATGAAT | 0.987 ± 0.0027 |
| GATCCCAGAG | 1.16 ± 0.082 |
| TAGCTAAATT | 0.99 ± 0.012 |
| GAAGCGGGTG | 1.1 ± 0.1 |
| ATTGGTTACG | 1.01 ± 0.028 |
| ACGTAGGTTT | 1.03 ± 0.046 |
| AATTTGTGTT | 0.992 ± 0.01 |
| GGGAGCATCG | 0.9709 ± 0.0055 |
| CGTTTCCTTT | 0.993 ± 0.024 |
| TTCGGTTACG | 1.01 ± 0.011 |
| TGCAAAAGGT | 1.02 ± 0.087 |
| TATTTGGTAT | 0.9862 ± 0.0075 |
| TTTTAAAAAC | 1.05 ± 0.049 |
| GGGATAGTGC | 1.01 ± 0.021 |
| GATGTGTTTC | 1.03 ± 0.06 |
| CACGAGAACT | 1.1 ± 0.024 |
| GACCTTTCTG | 0.997 ± 0.025 |
| ATAAAAAGGT | 0.987 ± 0.013 |
| GGTGCGATTG | 1.07 ± 0.052 |
| GGAGCATGAG | 2.47 ± 0.14 |
| TGTTTTGGG | 0.992 ± 0.042 |

| Sequence | switch fluorescence ratio |
| --- | --- |
| GCGCTCGGCA | 1.019 ± 0.00084 |
| ATGGGATTTA | 1.04 ± 0.024 |
| TTTTTAATAT | 1.04 ± 0.062 |
| TTTATGGGGT | 1.01 ± 0.028 |
| GTTGCTAAAT | 1 ± 0.03 |
| GTTTGGGCTT | 1.05 ± 0.063 |
| CCATGAAAAT | 1.029 ± 0.003 |
| GGCCGCGCTG | 1.04 ± 0.016 |
| TGATTGATAT | 1.01 ± 0.012 |
| CGACTTGGAA | 1.02 ± 0.036 |
| GGTTTTGGCG | 1 ± 0.061 |
| TTAGGGCTCG | 1.01 ± 0.057 |
| GGGGGGCTCG | 0.973 ± 0.064 |
| TCTTCGGTTG | 0.9805 ± 0.0096 |
| GGGAGATTAA | 0.975 ± 0.013 |
| TTGGGCTTAT | 1.001 ± 0.0066 |
| CCTGACTTTG | 0.972 ± 0.043 |
| CGCGTTTTTT | 1.07 ± 0.12 |
| ACCTCGTTTT | 0.9879 ± 0.0062 |
| GGAATCTAAC | 1.03 ± 0.048 |
| GCGATTGTGT | 1.002 ± 0.0055 |
| ATTTCTTGGT | 0.9751 ± 0.0083 |
| TTTTTCCGGG | 1.1 ± 0.11 |

| Sequence | switch fluorescence ratio |
| --- | --- |
| TAGCGGGGAC | 1.07 ± 0.037 |
| GAATTAAAGT | 0.9823 ± 0.0041 |
| GGATTAATTG | 0.996 ± 0.037 |
| CCAGTCATGA | 1.014 ± 0.0027 |
| TGGTGCAGCT | 1.005 ± 0.0059 |
| TTTACCCCGC | 1.63 ± 0.58 |
| GGTTCAGGGG | 2.26 ± 1.8 |
| TCTCTGTAGG | 1.03 ± 0.037 |
| GCTTTTTGGC | 1.03 ± 0.063 |
| ATCGGGTGCG | 0.981 ± 0.022 |
| CAACATGGGG | 0.9925 ± 0.0065 |
| ATAGGGGGAT | 0.993 ± 0.015 |
| TTGGCGGACG | 0.984 ± 0.026 |
| GTTGGGGGG | 0.984 ± 0.041 |
| ACATTTTTAT | 1.03 ± 0.015 |
| CGCTAATGCG | 1.04 ± 0.059 |
| TCGTTAATGG | 1.004 ± 0.0049 |
| CTTTAACGTG | 0.9718 ± 0.004 |
| GGGGGCTATA | 1.001 ± 0.0094 |
| TCCAGGGTAC | 1.23 ± 0.18 |
| TACTCGTCTA | 1.02 ± 0.018 |
| TCAATTATTT | 1 ± 0.023 |
| AAGGTGGGTG | 0.999 ± 0.029 |

| Sequence | switch fluorescence ratio |
| --- | --- |
| CTTAGTCTTT | 1.018 ± 0.0027 |
| TTGCTAAAAG | 1.02 ± 0.028 |
| AGATGAGGGT | 1 ± 0.02 |
| AAGGGAAATT | 0.983 ± 0.025 |
| TGTGGGATCG | 0.97 ± 0.02 |
| GTTTTTATGG | 0.997 ± 0.03 |
| AATTGGGTAT | 1.0014 ± 0.00066 |
| TATTAGTACT | 0.989 ± 0.011 |
| GGGATCAAGA | 0.998 ± 0.023 |
| AAAGTTTCAT | 0.991 ± 0.034 |
| CCTAATTTGG | 0.974 ± 0.031 |
| TGAGTCGCGT | 1.01 ± 0.013 |
| ATTTAGGTTA | 0.989 ± 0.021 |
| ACTTGGACAT | 1.04 ± 0.018 |
| GTTGATGGGA | 0.982 ± 0.03 |
| CGGTTATATG | 1.02 ± 0.015 |
| GTTGTAAAGA | 0.98 ± 0.019 |
| GGTTAATGGC | 1.05 ± 0.039 |
| TGGTGCTGTT | 0.985 ± 0.03 |
| TCCTAGGTTT | 1 ± 0.015 |
| TTGTGGGCAG | 1.03 ± 0.032 |
| ATTTGGGGAT | 1.02 ± 0.03 |
| GGTGACAAAT | 0.9777 ± 0.003 |

| Sequence | switch fluorescence ratio |
| --- | --- |
| AGGGGAAAGT | 0.954 ± 0.052 |
| CCGTATATAT | 2.55 ± 0.096 |
| CGGTTGTGAA | 0.963 ± 0.018 |
| TTTCATCGCC | 1.01 ± 0.012 |
| GGACACGCAG | 1.02 ± 0.047 |
| GGTGGGGTTA | 0.984 ± 0.038 |
| AGGGTAGATA | 1 ± 0.044 |
| CTAGGTGTGT | 1.02 ± 0.051 |
| CGGCGGGGGG | 1.08 ± 0.22 |
| TGGACCAGTT | 1.008 ± 0.0033 |
| CTGGTAGGGT | 1.02 ± 0.02 |
| GGATGAAACT | 1.012 ± 0.0044 |
| TTTTAAATGT | 1.04 ± 0.029 |
| TTGGGGAATG | 0.999 ± 0.049 |
| CGGAGTCTGT | 1.1 ± 0.048 |
| TTTGACTTGA | 0.984 ± 0.048 |
| TGTTAGGATT | 0.997 ± 0.014 |
| CGGCTACATT | 0.9995 ± 0.0034 |
| AAATTCGGCG | 1.01 ± 0.023 |
